Reference: patent publication US20150307617A1 (Genentech, published 2015)

Each binder was assayed against T1, Human OX40 (Sino Biological Inc) (human, UniProt P43489 29-216, limits assumed) (assay: SPR (Biacore), antibody captured via anti-human Fc, huOX40 analyte).
T1 construct: Bought soluble protein used as SPR analyte; also called huOX40
T1 sequence: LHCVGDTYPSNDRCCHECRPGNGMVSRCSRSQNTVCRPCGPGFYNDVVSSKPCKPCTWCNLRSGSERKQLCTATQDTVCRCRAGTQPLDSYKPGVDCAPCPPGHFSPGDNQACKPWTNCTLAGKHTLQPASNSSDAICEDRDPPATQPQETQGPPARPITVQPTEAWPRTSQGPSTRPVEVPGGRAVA
Method: (§1) The binding kinetics of the anti-OX40 antibodies was measured using surface plasmon resonance (SPR) on a Biacore 3000 instrument (GE Healthcare). Anti-human Fc (GE Healthcare) was immobilized on a CM5 sensor chip via amine-based coupling using manufacturer provided protocol. Anti-OX40 antibody was captured at a level of 300-400 resonance units (RU). Antibody binding was measured to human OX40 (Sino Biological Inc). Two-fold concentration series of huOX40 with a range of either 18.75 to 300 nM or 6.25 to 200 nM were used for the experiments. Sensorgrams for binding of OX40 were recorded using an injection time of 2 minutes with a flow rate of 30 μl/min, at a temperature of 25° C., and with a running buffer of 10 mM HEPES, pH 7.4, 150 mM NaCl, and 0.005% Tween 20. After injection, disassociation of the ligand from the antibody was monitored for 600 seconds in running buffer. The surface was regenerated between binding cycles with a 40 μl injection of 3 M Magnesium Chloride.

| Binder | Kd [nM] | koff [s⁻¹] | kon [M⁻¹ s⁻¹] | binding result |
| --- | --- | --- | --- | --- |
| 3C8.gr.10 (antibody, V domains shown, human Fc) VH: EVQLVQSGAEVKKPGASVKVSCKASGYAFTNYLIEWVRQAPGQGLEWIGVINPGSGDTYYSEKFKGRVTLTRDTSTSTAYLELSSLRSEDTAVYYCARDRLDYWGQGTLVTVSS VL: DIQMTQSPSSLSASVGDRVTITCHASQDISSYIVWYQQKPGKAFKLLIYHGTNLEDGVPSRFSGSGSGTDFTLTISSLQPEDFATYYCVHYAQFPYTFGQGTKVEIK | 2.84 | 0.00108 | 382000 |  |
| 3C8.gr.11 (antibody, V domains shown, human Fc) VH: EVQLVQSGAEVKKPGASVKVSCKASGYAFTNYLIEWVRQAPGQGLEWIGVINPGSGDTYYSEKFKGRVTLTRDTSTSTAYLELSSLRSEDTAVYYCARDRLDYWGQGTLVTVSS VL: DIQMTQSPSSLSASVGDRVTITCHASQDISSYIVWYQQKPGKAPKGLIYHGTNLEDGVPSRFSGSGSGTDFTLTISSLQPEDFATYYCVHYAQFPYTFGQGTKVEIK | 2.86 | 0.000917 | 321000 |  |
| 3C8.gr.DA (antibody, V domains shown, also called 3C8.gr.5.DA) VH: EVQLVQSGAEVKKPGASVKVSCKASGYAFTNYLIEWVRQAPGQGLEWIGVINPGSGDAYYSEKFKGRVTLTADTSTSTAYLELSSLRSEDTAVYYCARDRLDYWGQGTLVTVSS VL: DIQMTQSPSSLSASVGDRVTITCHASQDISSYIVWYQQKPGKSFKGLIYHGTNLEDGVPSRFSGSGSGTDFTLTISSLQPEDFATYYCVHYAQFPYTFGQGTKVEIK | 12.9 | 0.00502 | 388000 |  |
| 3C8.gr.DQ (antibody, V domains shown, also called 3C8.gr.5.DQ) VH: EVQLVQSGAEVKKPGASVKVSCKASGYAFTNYLIEWVRQAPGQGLEWIGVINPGSGDQYYSEKFKGRVTLTADTSTSTAYLELSSLRSEDTAVYYCARDRLDYWGQGTLVTVSS VL: DIQMTQSPSSLSASVGDRVTITCHASQDISSYIVWYQQKPGKSFKGLIYHGTNLEDGVPSRFSGSGSGTDFTLTISSLQPEDFATYYCVHYAQFPYTFGQGTKVEIK | 8.12 | 0.00309 | 381000 |  |
| 1A7.gr.2 (antibody, V domains shown, human Fc (captured by anti-human Fc)) VH: EVQLVQSGAEVKKPGASVKVSCKASGYTFTDSYMSWVRQAPGQGLEWIGDMYPDNGDSSYNQKFRERVTITVDTSTSTAYLELSSLRSEDTAVYYCVLAPRWYFSVWGQGTLVTVSS VL: DIQMTQSPSSLSASVGDRVTITCRASQDISNYLNWYQQKPGKAPKLLIYYTSRLRSGVPSRFSGSGSGTDFTLTISSLQPEDFATYYCQQGHTLPPTFGQGTKVEIK | 0.524 | 0.000233 | 444000 |  |
| 1D2.gr.2 (antibody, V domains shown, human Fc) VH: EVQLVESGPGLVKPSETLSLTCTVSGFSLTDYGVLWIRQPPGKGLEWIGMIWSGGTTDYNAAFISRVTISKDTSKNQVSLKLSSVTAADTAVYYCVREEMDYWGQGTLVTVSS VL: DIQMTQSPSSLSASVGDRVTITCRASQDISNFLNWYQQKPGKAPKLLIYYTSRLHSGVPSRFSGSGSGTDFTLTISSLQPEDFATYYCQQGNTLPWTFGQGTKVEIK | 55.9 | 0.0178 | 319000 |  |
| 1D2.gr.1 (antibody, V domains shown, human Fc) VH: EVQLVESGPGLVKPSETLSLTCTVSGFSLTDYGVLWIRQPPGKGLEWIGMIWSGGTTDYNAAFISRVTISVDTSKNQFSLKLSSVTAADTAVYYCVREEMDYWGQGTLVTVSS VL: DIQMTQSPSSLSASVGDRVTITCRASQDISNFLNWYQQKPGKAPKLLIYYTSRLHSGVPSRFSGSGSGTDFTLTISSLQPEDFATYYCQQGNTLPWTFGQGTKVEIK |  |  |  | binds |
| 1D2.gr.3 (antibody, V domains shown, human Fc) VH: EVQLVESGPGLVKPSETLSLTCTVSGFSLTDYGVLWVRQPPGKGLEWLGMIWSGGTTDYNAAFISRLTISKDTSKNQVSLKLSSVTAADTAVYYCVREEMDYWGQGTLVTVSS VL: DIQMTQSPSSLSASVGDRVTITCRASQDISNFLNWYQQKPGKAPKLLIYYTSRLHSGVPSRFSGSGSGTDFTLTISSLQPEDFATYYCQQGNTLPWTFGQGTKVEIK | 59.5 | 0.0163 | 273000 |  |

Target: T1, Human OX40 (Sino Biological Inc)
Test: as above
Remark: another data set of the same source
Method: as §1
Variants were tested by Biacore as described above to evaluate binding kinetics and in co-stimulation assays to determine biological activity.

| Binder | Kd [nM] | koff [s⁻¹] | kon [M⁻¹ s⁻¹] | fold loss of binding affinity (against 1A7.gr.1) [fold] |
| --- | --- | --- | --- | --- |
| 1A7.gr.DA (antibody, V domains shown) VH: EVQLVQSGAEVKKPGASVKVSCKASGYTFTDAYMSWVRQAPGQGLEWIGDMYPDNGDSSYNQKFRERVTITRDTSTSTAYLELSSLRSEDTAVYYCVLAPRWYFSVWGQGTLVTVSS VL: DIQMTQSPSSLSASVGDRVTITCRASQDISNYLNWYQQKPGKAPKLLIYYTSRLRSGVPSRFSGSGSGTDFTLTISSLQPEDFATYYCQQGHTLPPTFGQGTKVEIK | 0.259 | 8.32e-05 | 321000 |  |
| 1A7.gr.DANADA (antibody, V domains shown) VH: EVQLVQSGAEVKKPGASVKVSCKASGYTFTDAYMSWVRQAPGQGLEWIGDMYPDNADASYNQKFRERVTITRDTSTSTAYLELSSLRSEDTAVYYCVLAPRWYFSVWGQGTLVTVSS VL: DIQMTQSPSSLSASVGDRVTITCRASQDISNYLNWYQQKPGKAPKLLIYYTSRLRSGVPSRFSGSGSGTDFTLTISSLQPEDFATYYCQQGHTLPPTFGQGTKVEIK | 0.557 | 0.000215 | 387000 |  |
| 1A7.gr.NADA (antibody, V domains shown) VH: EVQLVQSGAEVKKPGASVKVSCKASGYTFTDSYMSWVRQAPGQGLEWIGDMYPDNADASYNQKFRERVTITRDTSTSTAYLELSSLRSEDTAVYYCVLAPRWYFSVWGQGTLVTVSS VL: DIQMTQSPSSLSASVGDRVTITCRASQDISNYLNWYQQKPGKAPKLLIYYTSRLRSGVPSRFSGSGSGTDFTLTISSLQPEDFATYYCQQGHTLPPTFGQGTKVEIK | 0.355 | 0.000108 | 304000 |  |
| 1A7.gr.NADS (antibody, V domains shown) VH: EVQLVQSGAEVKKPGASVKVSCKASGYTFTDSYMSWVRQAPGQGLEWIGDMYPDNADSSYNQKFRERVTITRDTSTSTAYLELSSLRSEDTAVYYCVLAPRWYFSVWGQGTLVTVSS VL: DIQMTQSPSSLSASVGDRVTITCRASQDISNYLNWYQQKPGKAPKLLIYYTSRLRSGVPSRFSGSGSGTDFTLTISSLQPEDFATYYCQQGHTLPPTFGQGTKVEIK | 0.442 | 0.000121 | 275000 |  |
| 1A7.gr.NGSS (antibody, V domains shown) VH: EVQLVQSGAEVKKPGASVKVSCKASGYTFTDSYMSWVRQAPGQGLEWIGDMYPDNGSSSYNQKFRERVTITRDTSTSTAYLELSSLRSEDTAVYYCVLAPRWYFSVWGQGTLVTVSS VL: DIQMTQSPSSLSASVGDRVTITCRASQDISNYLNWYQQKPGKAPKLLIYYTSRLRSGVPSRFSGSGSGTDFTLTISSLQPEDFATYYCQQGHTLPPTFGQGTKVEIK | 0.311 | 0.000108 | 349000 |  |
| 1A7.gr.SGDS (antibody, V domains shown) VH: EVQLVQSGAEVKKPGASVKVSCKASGYTFTDSYMSWVRQAPGQGLEWIGDMYPDSGDSSYNQKFRERVTITRDTSTSTAYLELSSLRSEDTAVYYCVLAPRWYFSVWGQGTLVTVSS VL: DIQMTQSPSSLSASVGDRVTITCRASQDISNYLNWYQQKPGKAPKLLIYYTSRLRSGVPSRFSGSGSGTDFTLTISSLQPEDFATYYCQQGHTLPPTFGQGTKVEIK | 0.993 | 0.000228 | 230000 | 2 |
